Reference: US20210347858A1

Target: human ACE2 receptor protein (hACE2) pre-coated on the plate of the GenScript sVNT C-Pass Kit (human) (UniProt Q9BYF1)
Assay: modified GenScript sVNT (FIG. 28), competitor HRP-RBD

Chain of UniProt Q9BYF1 (Q9BYF1 18-740 limits assumed): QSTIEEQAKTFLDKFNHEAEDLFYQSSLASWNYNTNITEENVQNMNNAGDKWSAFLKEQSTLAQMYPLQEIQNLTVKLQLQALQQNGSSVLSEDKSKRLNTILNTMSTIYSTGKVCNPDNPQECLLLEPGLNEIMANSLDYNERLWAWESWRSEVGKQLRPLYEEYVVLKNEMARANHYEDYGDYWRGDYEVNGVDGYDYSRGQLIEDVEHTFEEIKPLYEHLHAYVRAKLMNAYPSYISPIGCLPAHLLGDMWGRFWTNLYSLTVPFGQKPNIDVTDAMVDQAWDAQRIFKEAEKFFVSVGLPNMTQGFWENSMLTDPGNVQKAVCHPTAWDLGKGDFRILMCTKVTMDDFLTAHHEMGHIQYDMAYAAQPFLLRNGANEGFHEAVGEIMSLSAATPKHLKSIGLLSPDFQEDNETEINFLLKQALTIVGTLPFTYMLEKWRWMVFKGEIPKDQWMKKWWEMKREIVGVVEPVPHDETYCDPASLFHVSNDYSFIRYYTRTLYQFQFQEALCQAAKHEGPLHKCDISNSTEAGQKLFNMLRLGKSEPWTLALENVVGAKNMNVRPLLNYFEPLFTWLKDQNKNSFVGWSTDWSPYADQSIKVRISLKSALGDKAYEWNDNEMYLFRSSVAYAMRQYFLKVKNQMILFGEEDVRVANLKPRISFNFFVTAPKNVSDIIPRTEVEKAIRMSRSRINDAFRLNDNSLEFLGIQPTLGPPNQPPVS

Serum from uninoculated (non-targeted) chickens (antibody)
percent inhibition of RBD:ACE2 binding: < 5%
